Results from US20210322547A1.

How the values were obtained:
[1] = target: Recombinant human GM-CSF (expression source not stated) (human) (UniProt P04141); experiment: competition ELISA; plate coated with 50 ng/well recombinant GM-CSF; unlabeled antibody titrated together with 50 nM biotinylated Ab2; competition for 18 hrs; neutravidin-HRP detection, A450
[2] = target: Recombinant human GM-CSF (expression source not stated) (human) (UniProt P04141); experiment: competition ELISA; plate coated with 50 ng/well recombinant GM-CSF; unlabeled antibody titrated together with 50 nM biotinylated Ab2; competition for 1 hr; neutravidin-HRP detection, A450

Chain of UniProt P04141 (P04141 18-144 limits assumed): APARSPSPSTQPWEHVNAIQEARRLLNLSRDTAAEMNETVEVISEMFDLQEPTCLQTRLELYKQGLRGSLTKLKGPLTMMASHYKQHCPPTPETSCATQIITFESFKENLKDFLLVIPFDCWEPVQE

IC50 [1]: 94 nM
IC50 [2]: 122 nM
Substance: Ab2, chimeric IgG1k antibody having variable regions from the mouse antibody LMM102
